{"source": "IntAct's records for PubMed 20067578", "parents": {"B1": {"name": "Dual specificity mitogen-activated protein kinase kinase 6 (Homo sapiens), P52564 (parent)", "chain": "MSQSKGKKRNPGLKIPKEAFEQPQTSSTPPRDLDSKACISIGNQNFEVKADDLEPIMELGRGAYGVVEKMRHVPSGQIMAVKRIRATVNSQEQKRLLMDLDISMRTVDCPFTVTFYGALFREGDVWICMELMDTSLDKFYKQVIDKGQTIPEDILGKIAVSIVKALEHLHSKLSVIHRDVKPSNVLINALGQVKMCDFGISGYLVDSVAKTIDAGCKPYMAPERINPELNQKGYSVKSDIWSLGITMIELAILRFPYDSWGTPFQQLKQVVEEPSPQLPADKFSAEFVDFTSQCLKKNSKERPTYPELMQHPFFTLHESKGTDVASFVKLILGD"}}}
{"variants_of": "B1", "conditions": "with lrrk2_human LRRK2, Q5S007"}
{"variant": "MSQSKGKKRNPGLKIPKEAFEQPQTSSTPPRDLDSKACISIGNQNFEVKADDLEPIMELGRGAYGVVEKMRHVPSGQIMAVARIRATVNSQEQKRLLMDLDISMRTVDCPFTVTFYGALFREGDVWICMELMDTSLDKFYKQVIDKGQTIPEDILGKIAVSIVKALEHLHSKLSVIHRDVKPSNVLINALGQVKMCDFGISGYLVDSVAKTIDAGCKPYMAPERINPELNQKGYSVKSDIWSLGITMIELAILRFPYDSWGTPFQQLKQVVEEPSPQLPADKFSAEFVDFTSQCLKKNSKERPTYPELMQHPFFTLHESKGTDVASFVKLILGD", "note": "[K82A]", "effect of a mutation on the interaction": "decreasing interaction"}
